According to PMC7921117, “Structural characterization of the microbial enzyme urocanate reductase mediating imidazole propionate production” (Nature Communications, 2021):

Biological target: the molecule itself
Experiment: elution peak in chromatography during purification; purification of His-tagged UrdA′; the sentence follows the HisTrap HP imidazole gradient; one large asymmetrical peak

B1: two-domain urocanate reductase UrdA′ (clamp domain and FAD-binding domain) from Shewanella oneidensis MR-1 (domain or fragment, Shewanella oneidensis (strain MR-1), UniProt Q8CVD0 130-582, looked up)
chain: EYTYDVVIIGSGGAGFSAGLEAIAAGRSAVIIEKMPIIGGNSLISGAEMNVAGSWVQKNMGITDSKELFISDTLKGGDFKGDPEMVKTMVDNAVGAAEWLRDYVKVEFYPDQLFQFGGHSVKRALIPKGHTGAEVISKFSIKADEVGLPIHTNTKAEKLIQDQTGRIVGVEAAHNGKTITYHAKRGVVIATGGFSSNMEMRKKYNPELDERYGSTGHAGGTGDGIVMAEKIHAAAKNMGYIQSYPICSPTSGAIALIADSRFFGAVLINQKGERFVEELERRDVISHAILAQPGRYTYVLWNQDIENVAHTVEMHQGELKEFTKDGLMYKVDTLEEAAKVFNIPEDKLLSTIKDVNHYAATGKDEAFNHRSGLVDLSKGPYWILKATPSVHHTMGGLVVDTRTRVLDEQGKVIPGLFAAGEVTGLTHGTNRLGGNAYTDIIVYGRIAGQEAAK
notes: Synthetic gene in pET-24a(+); The main peak fraction, mostly monomeric, was used for further experiments; also called UrdA′wt; Two-domain WT; source: E. coli TUNER (DE3), purified (HisTrap HP; size-exclusion chromatography before crystallization); not shown: 6xHis, C-terminal, kept
binding result: binds
